US20200399347A1, “IL-22BP COMPOSITIONS AND METHOD FOR THE TREATMENT OF DISEASE THEREWITH” (The Regents of the University of Michigan, priority 2017, published 2020)
Values belong to the molecule of their own block, whether it stands above or below them.

What was measured:
PD2560 = test: Cisplatin mediated cell death (cleaved caspase 3 immunoblot) with or without IL-22 pre-treatment; assay type: cell-based, murine
Protocol: Chemoresistance is a well-established phenomenon in PDAC and is often responsible for disease progression and death. […] Cells were then treated with varying doses of cisplatin and cell death assessed by immunoblot for cleaved caspase 3. Degree of DNA damage was determined by measurement of phosphorylated histone 2AX (pH2AX), a marker of DNA damage triggered by cisplatin (ref. 39; incorporated by reference in its entirety). […] The differences in cell death appeared to be mediated by changes in DNA damage (FIG. 6 Panel B).

IL-22 [1] = target: T1, IL-22 (Homo sapiens, UniProt Q9GZX6); test: Neutralization of human IL-22 by IL-22BP, read out as pSTAT3 activation in PDAC lines; assay type: cell-based; settings: IL-22 100 ng/ml incubated 30 minutes with IL-22BP 0-1000 ng/ml, pSTAT3 at 15 minutes in PDAC lines
T1 sequence (Q9GZX6 34-179): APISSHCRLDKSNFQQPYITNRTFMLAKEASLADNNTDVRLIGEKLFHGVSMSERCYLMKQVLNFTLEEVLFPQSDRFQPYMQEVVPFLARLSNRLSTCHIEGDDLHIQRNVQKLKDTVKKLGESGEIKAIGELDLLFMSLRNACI
Protocol: (§1) IL-22BP is an important regulator of IL-22 signaling at the tissue level and functions by sequestering cytokine and blocking its ability to bind to its cognate receptor. Its high affinity for IL-22 and neutralizing ability make it an attractive target for pharmacologic disruption of IL-22 signaling. To determine its efficacy in vitro, a fixed concentration of human and mouse IL-22 (100 ng/ml) was incubated for 30 minutes with increasing concentrations of human or mouse IL-22BP (0-1000 ng/ml). The mixture was then placed onto human and murine PDAC lines and IL-22 signaling measured by pSTAT3 activation at 15 minutes. […] A fusion protein which binds hIL-22BP to murine albumin was constructed.

mouse IL-22 = target: T2, mouse IL-22 (Mus musculus, UniProt Q9JJY9); test: Neutralization of mouse IL-22 by IL-22BP, read out as pSTAT3 activation in PDAC lines; assay type: cell-based; settings: IL-22 100 ng/ml incubated 30 minutes with IL-22BP 0-1000 ng/ml, pSTAT3 at 15 minutes in PDAC lines
T2 sequence (Q9JJY9 34-179): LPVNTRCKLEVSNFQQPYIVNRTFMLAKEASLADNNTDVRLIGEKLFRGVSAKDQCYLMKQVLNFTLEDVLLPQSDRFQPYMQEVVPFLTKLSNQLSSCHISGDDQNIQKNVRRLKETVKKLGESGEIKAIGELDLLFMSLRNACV
Protocol: as §1

IL-22 [2] = target: T1, IL-22; test: In vitro testing of fusion protein for sequestration and abrogation of STAT3 signaling; assay type: cell-based; settings: IL-22 species not stated, FIG. 6 Panel E
Protocol: as §1

[3] = target: T3, IL-22BP-Alb fusion protein (human IL-22BP fused to murine albumin) (Homo sapiens; mouse, UniProt Q969J5 22-263); test: binding inferred from neutralisation of IL-22-induced pSTAT3 signaling in vitro
T3 construct: also called fusion protein of hIL-22BP and albumin; not shown: serum albumin, mouse, cloned from mouse liver
T3 sequence: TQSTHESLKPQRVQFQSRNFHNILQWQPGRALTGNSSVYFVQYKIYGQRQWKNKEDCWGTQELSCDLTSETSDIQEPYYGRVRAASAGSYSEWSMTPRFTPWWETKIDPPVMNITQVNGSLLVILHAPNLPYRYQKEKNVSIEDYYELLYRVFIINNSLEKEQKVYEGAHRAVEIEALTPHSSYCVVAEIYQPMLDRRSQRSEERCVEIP
Protocol: as §1

[4] = target: T4, human IL-22 binding protein (IL-22BP) (Homo sapiens, UniProt Q969J5 22-263); test: binding inferred from neutralisation of IL-22-induced pSTAT3 on PDAC cells (immunoblot)
T4 construct: also called hIL-22BP; human IL-22BP
T4 sequence: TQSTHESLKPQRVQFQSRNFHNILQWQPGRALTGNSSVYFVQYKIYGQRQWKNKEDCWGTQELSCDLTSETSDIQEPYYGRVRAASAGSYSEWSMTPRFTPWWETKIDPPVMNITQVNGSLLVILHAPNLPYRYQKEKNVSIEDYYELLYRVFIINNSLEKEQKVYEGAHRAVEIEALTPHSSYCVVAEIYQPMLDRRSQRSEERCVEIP

PKCY cells = test: Matrigel invasion assay, PDAC line; assay type: cell-based, murine; settings: IL-22 incubation compared to control conditions (untreated and IL-6)
Protocol: (§2) To establish the role of IL-22 in pancreatic tumorigenesis in vitro, the murine PDAC line PKCY and PanIN lines 134, 5505 and 5552 were incubated in IL-22. Matrigel invasion assays were performed and number of infiltrating cells quantified. IL-22 incubation induced a 10-fold increase in invasion of PKCY cells compared to control conditions (untreated and IL-6) (FIG. 5 Panel A). […] Wild-type and IL-22 knockout mice were subcutaneously inoculated with equal quantities of PKCY cells. At 21 days, mice were sacrificed and tumor development, size and weight were determined.

[5] = test system: human and mouse PDAC cell lines; test: Immunoblotting for STAT3 and NF-κB activation after IL-22 incubation; assay type: cell-based; settings: 100 ng/ml of IL-22 for 15 and 30 minutes
Description: One of the principle signaling pathways activated by ligand binding at IL-22R1 is via JAK mediated phosphorylation of STAT3 (pSTAT3) (Refs. 7, 36, 37; incorporated by reference in its entirety). Because of constitutive association of STAT3 with the intracellular domain of the receptor, signaling is activated rapidly and efficiently upon IL-22 binding (ref 38; incorporated by reference in its entirety). A second, less described IL-22 signaling pathway is via NF-κB, which leads to transcription of genes associated with proliferation and prevention of apoptosis (ref. 6, 7; incorporated by reference in their entireties). To evaluate the ability of IL-22 to activate STAT3 and NF-κB in human and mouse PDAC, cell lines were incubated with 100 ng/ml of IL-22 for 15 and 30 minutes. […] To determine the presence of STAT3 activation in-vivo, IHC for pSTAT3 was performed on pancreata harvested from PKCY mice at 8 weeks (low-grade PanIN), 12 weeks (high-grade PanIN) and after ultrasound confirmation of PDAC. pSTAT3 staining was increased as lesions advanced from low grade PanIN to invasive cancer (FIG. 4B-D).

PanIN cell lines = test: Matrigel invasion assay, PanIN lines; assay type: cell-based, murine; settings: IL-22 incubation; two PanIN cell lines with little to no invasive capability at baseline
Protocol: as §2

Molecule: N.N.[Cl][Pt][Cl] [cisplatin, reference compound]
cell death by cisplatin (cleaved caspase 3) (PD2560; murine PDAC line PD2560, low and high doses): showed sensitivity

B1: IL-22BP-Alb: fusion protein which binds hIL-22BP to murine albumin (protein)
chain: TQSTHESLKPQRVQFQSRNFHNILQWQPGRALTGNSSVYFVQYKIYGQRQWKNKEDCWGTQELSCDLTSETSDIQEPYYGRVRAASAGSYSEWSMTPRFTPWWETKIDPPVMNITQVNGSLLVILHAPNLPYRYQKEKNVSIEDYYELLYRVFIINNSLEKEQKVYEGAHRAVEIEALTPHSSYCVVAEIYQPMLDRRSQRSEERCVEIP
modifications: left off: large carriers
neutralization of human IL-22 (pSTAT3 activation) (IL-22 [1]): capable of binding and neutralizing
neutralization of murine IL-22 (pSTAT3 activation) (mouse IL-22): capable of binding and neutralizing
neutralization of IL-22 (sequestration and abrogation of STAT3 signaling) (IL-22 [2]): capable of neutralizing IL-22

B3: IL-22: α-helical cytokine that binds the heterodimeric cell surface receptor IL-22R (protein, UniProt Q9GZX6 34-179, looked up)
Interleukin-22: APISSHCRLDKSNFQQPYITNRTFMLAKEASLADNNTDVRLIGEKLFHGVSMSERCYLMKQVLNFTLEEVLFPQSDRFQPYMQEVVPFLARLSNRLSTCHIEGDDLHIQRNVQKLKDTVKKLGESGEIKAIGELDLLFMSLRNACI
increase in invasion of PKCY cells (PKCY cells): 10 fold
pSTAT3 activation [5]: robust pSTAT3 activation
pNF-κB ([5]; KPC and PKCY lines): modest increase
effect of IL-22 pre-treatment on sensitivity to cisplatin (PD2560; PD2560 cultured in IL-22 for 4 days before cisplatin): diminished
invasion of PanIN cell lines (PanIN cell lines): induced invasion

B4: Human IL-22BP: human interleukin-22 binding protein, soluble receptor capable of cytokine neutralization (SEQ ID NO: 1) (protein, listed as Homo sapiens)
chain: MMPKHCFLGFLISFFLTGVAGTQSTHESLKPQRVQFQSRNFHNILQWQPGRALTGNSSVYFVQYKIYGQRQWKNKEDCWGTQELSCDLTSETSDIQEPYYGRVRAASAGSYSEWSMTPRFTPWWETKIDPPVMNITQVNGSLLVILHAPNLPYRYQKEKNVSIEDYYELLYRVFIINNSLEKEQKVYEGAHRAVEIEALTPHSSYCVVAEIYQPMLDRRSQRSEERCVEIP
neutralization of human IL-22 (pSTAT3 activation) (IL-22 [1]): completely neutralizing
neutralization of human IL-22 (pSTAT3 activation) (IL-22 [1]; listed as hIL-22BP): capable of binding and neutralizing
neutralization of murine IL-22 (pSTAT3 activation) (mouse IL-22): completely neutralizing
neutralization of murine IL-22 (pSTAT3 activation) (mouse IL-22; listed as hIL-22BP): capable of binding and neutralizing

The remaining lines, values ahead:

binding result [3]: binds
binding result [4]: binds
B2: human IL-22 (ligand, UniProt Q9GZX6 34-179, looked up)
chain: APISSHCRLDKSNFQQPYITNRTFMLAKEASLADNNTDVRLIGEKLFHGVSMSERCYLMKQVLNFTLEEVLFPQSDRFQPYMQEVVPFLARLSNRLSTCHIEGDDLHIQRNVQKLKDTVKKLGESGEIKAIGELDLLFMSLRNACI
notes: Used at a fixed 100 ng/ml

binding result [3]: binds
binding result [4]: binds
B5: mouse IL-22 (ligand, UniProt Q9JJY9 34-179, looked up)
chain: LPVNTRCKLEVSNFQQPYIVNRTFMLAKEASLADNNTDVRLIGEKLFRGVSAKDQCYLMKQVLNFTLEDVLLPQSDRFQPYMQEVVPFLTKLSNQLSSCHISGDDQNIQKNVRRLKETVKKLGESGEIKAIGELDLLFMSLRNACV
notes: Used at a fixed 100 ng/ml; also called murine IL-22

neutralization of human IL-22 (pSTAT3 activation) (IL-22 [1]): little sequestration
neutralization of murine IL-22 (pSTAT3 activation) (mouse IL-22): little sequestration
B6: murine IL-22BP: mouse interleukin-22 binding protein (SEQ ID NO: 2) (protein, listed as Mus musculus)
chain: MMPKHCLLGLLIILLSSATALEIQPARVSLTPQKVRFQSRNFHNILHWQAGSSLPSNNSIYFVQYKMYGQSQWEDKVDCWGTTALFCDLTNETLDPYELYYGRVMTACAGRHSAWTRTPRFTPWWETKLDPPVVTITRVNASLRVLLRPPELPNRNQSGKNASMETYYGLVYRVFTINNSLEKEQKAYEGTQRAVEIEGLIPHSSYCVVAEMYQPMFDRRSPRSKERCVQIP
